Fewer inactive variants are shown than the library holds. Some results are limits rather than exact numbers.

The labels stand for the following.
B1: TPR 5TU (parent)
chain: GGAUCUUCUCGAUCUAACAAAAAAGACAAAUCUGCCACAAAGCUUGAGAGCAUCUUCGGAUGCAGAGGCGGCAGCCUUCGGUGGCGCGAUAGCGCCAACGUUCUCAACUAUGACACGCAAAACGCGUGCUCCGUUGAAUGGAGUUUAUCAUG

Variants of B1 are the subject of this data set. Description: polymerase ribozyme fitness, log enrichment relative to wild type (log ratio); higher = more active; in vitro selection for triplet polymerase activity. Put shortly: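 Frozen incubation at −7 °C formed the core of a single, triplicate in vitro selection round applied to PCR-built, transcribed mutant libraries of each subunit of a heterodimeric triplet polymerase ribozyme. Extended constructs were gel-excised, captured with streptavidin beads and amplified by RT-PCR, and input and output libraries were Illumina-sequenced with a filter of ≥10 input reads and ≥1 read per output. Fitness is the logarithm of genotype enrichment relative to wild-type enrichment, with inverse-variance-weighted replicate averaging, and the logarithm is base 2.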
With A26C C96U G124A, the “polymerase ribozyme fitness (log ratio)” value is -1.67.

As to A26C A47G C63A A91C A97U A98G A138U, the “polymerase ribozyme fitness (log ratio)” value is at most -4.2. Then A26U C72G G81A G86C, with at most -4.2; and A26C A64G G83U C85G A115G, with at most -4.2; and A26C G34C A52C C75A G80C, with at most -4.2. Turning to G25U C69G G83U C95U, the “polymerase ribozyme fitness (log ratio)” value is -3.

Take G25U G50C C87G G136U: the “polymerase ribozyme fitness (log ratio)” value was at most -4.2. In the case of A26U A40U A91U A121U it was at most -4.2; in that of A26C A47C U77C U102C G117C, at most -4.2.

In the case of A26U C51U C114U C129U, the “polymerase ribozyme fitness (log ratio)” value was at most -4.2. Then A26U U104C G126C U146A, with -2.67. Then G25U C85U U101C, with -2.41. In the case of A26C U44A U55G G86A G88C it was at most -4.2. As to A26C U53A U56A C114U, the “polymerase ribozyme fitness (log ratio)” value is -3.79. Then A26C C85U, with -1.86; and A26C A107G, with at most -4.2; and A26C C27G C51G G83C A89C A138G A142U, with at most -4.2. Take A26G G48A: the “polymerase ribozyme fitness (log ratio)” value is at most -4.2.

Regarding A26U G81A, the “polymerase ribozyme fitness (log ratio)” value is -1.66. Then C27A C43A A52U U55A U56A G92U, with at most -4.2; and A26U G46U G48U G81U G83C C99G, with at most -4.2. For A26U A60U U111G G141U, the “polymerase ribozyme fitness (log ratio)” value is -3.78. In the case of G25U G84A C131U G136A U144G it was -1.89. In the case of A26C A49C it was at most -4.2; in that of A26U G42C C93G A115U, at most -4.2. In the case of C27A C85U C96A C114U A119G G140C it was -4.07. As to A26U A147U, the “polymerase ribozyme fitness (log ratio)” value is -0.0486.

On to A26G C32A A39C C54A A150G, for which the “polymerase ribozyme fitness (log ratio)” value is at most -4.2. Then A26U A40C G68C G71U U82A A119C C125A A150C, with at most -4.2; and A26U C75U, with -3.23; and C27A A30U U44A C57A A97G A98U A119C A120G G128A, with at most -4.2. Turning to A26U A28C A52C G58A U139G A147C, the “polymerase ribozyme fitness (log ratio)” value was at most -4.2. For G25U U44G U45A U56A G80A C85U A97U, the “polymerase ribozyme fitness (log ratio)” value is at most -4.2. On to A26U C27U U33A G34A U56A C57U C76A C85G G88A U127C, for which the “polymerase ribozyme fitness (log ratio)” value is at most -4.2. As to C27A G88A C96A A97G G128U U135G U145A, the “polymerase ribozyme fitness (log ratio)” value is at most -4.2. In the case of G25U C87U C93G A138U it was at most -4.2; in that of A26U A49G C93U G124C U135G A138G, at most -4.2; in that of A26U C93U A122U, -2.76.

On to A26C A52C C69U G100A C125A, for which the “polymerase ribozyme fitness (log ratio)” value is at most -4.2. As for A26C A41C A49C G62C A138G, the “polymerase ribozyme fitness (log ratio)” value was at most -4.2. Take A26U A91G A115G A150C: the “polymerase ribozyme fitness (log ratio)” value is at most -4.2.

As for A26U A89G, the “polymerase ribozyme fitness (log ratio)” value was -3.26. A26U C35U G42C C108A A115C G133U U135A A142G U146C A147G: the “polymerase ribozyme fitness (log ratio)” value was at most -4.2. Then A26U G48A, with -3.27.

Turning to A26U G65A A66U U77C C96U A106U A107U C132U U139A G143C U148A, the “polymerase ribozyme fitness (log ratio)” value was at most -4.2. In the case of A26U C96U C108G U127A it was at most -4.2; in that of G25U C35A A41G C54U C87U C95U, -3.99; in that of A26C A47C A52C G58C G71A G100C C116A, at most -4.2. For A26C U82A A137G, the “polymerase ribozyme fitness (log ratio)” value was -2.93. Then G25U U55G A122U, with -3.1; and A26G A30C A39C A47U C76U C93U A97G G133A G140U G141A, with -4.02; and A26C C27U, with -2.8. Regarding C27A C35A G84U C103G, the “polymerase ribozyme fitness (log ratio)” value is at most -4.2.

Regarding A26U C36G U55A G58C C105U, the “polymerase ribozyme fitness (log ratio)” value is at most -4.2. Then C27A A39G U53C C95A A121U G136C, with at most -4.2; and G25U G42A A49C G80A C85G C95U C103A, with at most -4.2; and A26U C32G G86A C105U, with at most -4.2. Then A26U C96U C116G, with -1.18; and C27A U33C G88C G141C, with at most -4.2. In the case of A26C C35U U55A C76U C87G G92U A98G it was -3.11; in that of G25U A47G A60G C75A A91U A122U G141C A142G, at most -4.2; in that of A26U G46C U55A C93U C103A A106G C114A, at most -4.2. For C27A A37U G42C A106C C116G A121G G128A U145G, the “polymerase ribozyme fitness (log ratio)” value was at most -4.2. In the case of A26U U56A it was -2.17. Regarding A26U A39C A49G G128A A138G, the “polymerase ribozyme fitness (log ratio)” value was at most -4.2. Consider G25U C35U A49U G68A G81A U109G C118U G126C, for which the “polymerase ribozyme fitness (log ratio)” value is at most -4.2. For A26U C35U A47C C54G A64G A66U C93A A142G, the “polymerase ribozyme fitness (log ratio)” value was at most -4.2. For C27A G117A, the “polymerase ribozyme fitness (log ratio)” value was -3.86. Consider A26U G86A, for which the “polymerase ribozyme fitness (log ratio)” value was -2.74.

Take A26U G80A A98C U101G: the “polymerase ribozyme fitness (log ratio)” value is -3.73. In the case of G25U G83A C95A A138U U139C it was at most -4.2. Turning to A26U A49U G59U, the “polymerase ribozyme fitness (log ratio)” value is at most -4.2. Turning to C27A A37U A91C, the “polymerase ribozyme fitness (log ratio)” value was -4.17. Then G25U A89U C96G G100A U102C C118A A119G, with at most -4.2. Then A26G U44A C54U C87A C99U U111G G143U, with at most -4.2; and A26G G59A A89C C105U, with at most -4.2; and A26U A30U A37C U61A A66C G67C C69U C87A C105A C125U, with at most -4.2.

For C27A G86U U144A, the “polymerase ribozyme fitness (log ratio)” value is at most -4.2. In the case of A26U C32G U45C G50C U53G G84A C99U A137G it was at most -4.2; in that of A26G A52C G59C A64C, at most -4.2. In the case of A26U U31A U44G C75G U102G A120C, the “polymerase ribozyme fitness (log ratio)” value was at most -4.2.

Turning to A26C A29C G65A C87G A97G A142G, the “polymerase ribozyme fitness (log ratio)” value was at most -4.2. For the variant A26C C75U G92C, the “polymerase ribozyme fitness (log ratio)” value was at most -4.2.

Source of the values: the RNAGym collection of RNA variant scans (doi:10.1073/pnas.2313332121).
